In US11351270B2, “Junctophilin-2 fragments and uses therefor” (University of Iowa Research Foundation, priority 2016, dated 2022):
Peptide text beside a SMILES is read from it. * marks the point of attachment. Cbz = O=C(OCc1ccccc1)*; CH2F = FC*

Key:
[1] = target: T1, human calpain I (Homo sapiens, UniProt P07384); assay: In vitro calpain-mediated proteolysis reaction; assay type: biochemical; conditions: for JP2 degradation by calpain I: WT mouse heart lysates, 3 mM free Ca2+, Z-LLY-FMK 20 μM, EDTA 5 mM
T1 construct: purchased Calbiochem
T1 sequence (P07384 1-714): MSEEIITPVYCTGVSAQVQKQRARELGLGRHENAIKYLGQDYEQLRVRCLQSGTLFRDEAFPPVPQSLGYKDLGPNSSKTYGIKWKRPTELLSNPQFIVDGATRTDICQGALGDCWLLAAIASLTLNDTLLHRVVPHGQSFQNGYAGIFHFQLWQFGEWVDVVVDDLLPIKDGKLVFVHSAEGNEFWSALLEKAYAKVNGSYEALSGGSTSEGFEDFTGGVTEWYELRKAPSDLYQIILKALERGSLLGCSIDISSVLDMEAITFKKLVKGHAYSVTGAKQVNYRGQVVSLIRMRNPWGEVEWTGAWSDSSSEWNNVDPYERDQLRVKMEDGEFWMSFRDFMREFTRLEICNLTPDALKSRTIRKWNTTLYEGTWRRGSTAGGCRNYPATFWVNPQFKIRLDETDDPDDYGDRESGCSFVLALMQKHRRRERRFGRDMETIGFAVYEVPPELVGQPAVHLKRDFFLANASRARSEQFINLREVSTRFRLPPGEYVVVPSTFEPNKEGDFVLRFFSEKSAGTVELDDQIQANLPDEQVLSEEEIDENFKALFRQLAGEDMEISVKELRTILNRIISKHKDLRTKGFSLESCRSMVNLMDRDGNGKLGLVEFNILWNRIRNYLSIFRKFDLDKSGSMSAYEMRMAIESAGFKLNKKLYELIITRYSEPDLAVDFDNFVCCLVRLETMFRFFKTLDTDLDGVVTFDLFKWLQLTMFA
T1 sequence (P04632 1-268 partner): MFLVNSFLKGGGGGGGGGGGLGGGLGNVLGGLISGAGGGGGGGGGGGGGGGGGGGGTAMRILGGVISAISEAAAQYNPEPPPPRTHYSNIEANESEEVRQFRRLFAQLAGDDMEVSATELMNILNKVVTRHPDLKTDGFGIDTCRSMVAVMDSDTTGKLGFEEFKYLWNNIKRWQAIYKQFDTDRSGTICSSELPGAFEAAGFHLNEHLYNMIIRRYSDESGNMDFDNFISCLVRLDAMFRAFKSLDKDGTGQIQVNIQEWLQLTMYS
Description: Mouse and human heart tissues as well as HEK 293T cells (obtained from the ATCC and cultured according to the protocol of the manufacturer) overexpressing tagged JP2 were washed with PBS and homogenized in lysis buffer (20 mM Tris-HCl, 150 mM NaCl, 2 mM EDTA, and 1% Triton X-100), followed by sonication. Homogenates were centrifuged for 10 minutes at 14,000 rpm at 4° C. Protein content in the supernatant was determined using the BCA assay (Thermo Scientific). Cell extracts were diluted in ice-cold calpain reaction buffer (135 mM NaCl, 5 mM KCl, 1 mM MgCl2, 10 mM glucose, 10 mM Hepes (pH 7.25), 2 mM lactacystin, and 10 mM 2-mercaptoethanol) to a concentration of 4 mg protein/ml. Just prior to starting the protease reaction, CaCl2 was added to achieve a final concentration of 3 mM free Ca^2+ (in the presence of EDTA), as calculated by winmaxc32 (Stanford University). For some experiments, the free Ca^2+ concentration was adjusted to 500 μM, as calculated by winmaxc32. Purified human calpain I (Calbiochem) was added at a concentration of 1 mg of total protein/1 μg of calpain I. Reactions without Ca^2+ or without purified calpain I were used as controls. Reactions were incubated at 30° C. for the indicated time and stopped by adding EDTA to a final concentration of 10 mM and incubating for 5 minutes at 95° C. The reaction products were subjected to Western blotting.

[2] = test system: MEF2C Response Element (MRE) from the desmin enhancer; assay: Gel shift assay with MEF2 response element; assay type: binding; conditions: purified protein
From the text: FIGS. 12A-E. JP2NT represses MEF2-mediated transcription by competing for the MEF2 Response Element (MRE). A) Enrichment of MEF2 binding motifs in ChIP-seq dataset. B) Gel shift assay of JP2NT binding to a desmin promoter-derived DNA sequence containing a WT or mutated MRE in vitro. C) Co-immunoprecipitation of HA-tagged JP2NT binding to MEF2C or Histone H3. D) & E) MEF2 activity assays in 293T cells co-transfected with luciferase under the control of an MRE, MEF2C and WT JP2NT (D) or a mutant lacking the ARR (E, JP2NT^ΔARR). n≥3 independent batches of cells; in each batch of experiments, 3 replicates were performed for each transfection; **p<0.01 vs. Ad-Empty.
The MEF2 family, master regulators of hypertrophic genes in cardiomyocytes, binds to the A/T enriched consensus sequence (C/TTA(A/T)4TA G/A), which shares the same core sequence with TATA box. Thus, it was hypothesized that JP2NT directly interacts with MEF2 binding sites.

[3] = test system: TATA box DNA sequences; assay: Gel shift assay with TATA box sequences; assay type: binding; conditions: GST-purified protein; cMyc or CMV promoter sequences
From the text: FIGS. 11A-H. JP2NT is a TATA-box binding protein enriched at transcription start site (TSS) and interacts with basic transcription machinery. […] C) 293T cells were transfected with HA-tagged JP2NT, followed by crosslinking-reversal immunoprecipitation with anti-HA and immunoblotting with anti-polymerase II (Rpb1) or anti-TATA box binding protein (TBP). D-H) JP2NT binds to TATA box DNA sequences in vitro. D-E) Gel shift assays of GST-purified JP2NT binding to WT (D). or mutated TATA box-containing sequences (E) derived from the cMyc promoter. F) Summary of the results of gel shift assays with various of TATA box variants or mutants. Mutation of the core TATA sequences abolished the interaction with GST-JP2NT. G) Deletion of the ARR, but not the N-terminal MORN domains, eliminated JP2NT binding to the TATA box sequence. H) The peptide JP2^331-405 containing the ARR specifically binds to WT TATA box sequence.
TBP specifically binds to TATA boxes, eukaryotic core cis-regulatory elements localized at transcription start site. […] This interaction was abrogated by mutation of the TATA box elements (FIGS. 11E&G and 17B). It was concluded that JP2NT is a DNA binding protein, binding to consensus TATA box represented as TATAA(A/T) or TATATA (FIG. 11F).

[4] = test system: JP2-KD cardiomyocytes; assay: Confocal Ca2+ imaging in JP2-KD cardiomyocytes after adenoviral expression; assay type: cell-based, mouse; conditions: 1-Hz field stimulation
From the text: Specifically, conditional shJP2 mice (provided by Dr. Wehrens) (van Oort et al., 2011) were crossed with mice carrying the cardiac-specific α-myosin heavy chain promoter upstream of Cre (% MHC-Cre, also FVB-Tg(Myh6-cre)2182Mds/J, The Jackson Laboratory). The shJP2 mice were maintained on a C57BL/6 background for more than 10 generations. The αMHC-Cre mice were maintained on an FVB background. PCR was used to genotype the offspring. The near complete depletion of JP2 protein in JP2-KD (αMHC-Cre X shJP2) hearts has been reported recently (Chen et al., 2013). JP2-KD mice were sacrificed at 2 months of age for isolation and culture of ventricular cardiomyocytes as described below.
Genecarrior-1 (Epoch Lab) was used to transfect plasmids into HEK293T cells. Isolation and culture of cardiomyocytes were performed as described previously (Guo et al., 2012). […] Ca^2+ Imaging experiments were performed 40 hours after adenoviral infection.
Cells were loaded with Rhod-2AM at 37° C. for 20 minutes, followed by washing with Tyrode's solution at room temperature for 15 minutes before Ca^2+ imaging. Confocal images were acquired using a ×63, 1.3 numerical aperture oil immersion objective mounted on a Zeiss LSM 510 confocal microscope. Confocal line scanning was used to record Ca^2+ signals. Steady-state Ca^2+ transients were recorded in Tyrode's solution containing 1.8 mM Ca^2+ under field stimulation of 1 Hz. At least five steady-state transients for each cell were analyzed and averaged to represent Ca^2+ signals of the cell. Ca^2+ imaging data were analyzed by using a home-complied software, CaTeasy, which is coded in MATLAB 2013a (Mathworks). Briefly, the program normalizes Ca^2+ transient images on a column-by-column basis (512 columns/image). The characteristic parameters of normalized transients were detected automatically. The firing time of every scanning pixel was detected column by column on the basis of the maximum local variability of pixel intensity. The profile of the point-to-point firing time was indicated by a red line overlapping on the Ca^2+ image. Index of desynchronization, defined by the mean absolute deviation of firing time of each scanning pixel (with every 8 pixels binned), was used to evaluate the dyssynchrony of Ca^2+ transients. This automated software for calcium transient analysis is available upon request.

[5] = test system: RyR2 and Cav1.2; assay: Coimmunoprecipitation with E-C coupling channels; assay type: binding, mouse; conditions: anti-HA immunoprecipitation
From the text: FIGS. 5A-H. JP2 truncations are nonfunctional in regulating Ca^2+ transients. A) An antibody against the HA tag was used to reveal the localization of adenoviral expression of tagged full-length JP2 and truncations, as indicated, in adult wild-type cardiomyocytes. All the three version of JP2 can be localized in the striated pattern. B) Full-length JP2 and JP2(1-565) forms complexes with RyR2 and Cav1.2 In vivo. An antibody against HA was used for immunoprecipitation […]. The RyR2 and Cav1.2 that were pulled down were detected by Western blot analysis. […] IB, immunoblot. C) Adenovirus-mediated expression of full-length JP2, FLAG-JP2(1-565)-HA, and JP2(566-end)-HA in JP2-KD) cardiomyocytes. D) Representative steady-state Ca^2+ transients under 1-Hz field stimulation. The fluorescence intensity (F) of Ca^2+ imaging was normalized to the baseline (FO). The red lines overlapping on Ca^2+ imaging show the profile of the moment of Ca^2+ transient firing on the scanning line in a point-by-point way. A straighter line means better synchronization of the Ca^2+ transients. Note that expression of full-length JP2, but not JP2 truncations, improves the amplitude and synchronization of Ca^2+ transients. E-G) Summary of Ca^2+ transient amplitude, index of desynchronization (mean absolute deviation of firing time), and duration of 50% decay (T5) (n=68, 70, 70, and 52 for Ad-Empty, Ad-JP2, […], and Ad-JP2(566-end), respectively). Only full-length JP2 Improves the amplitude, synchronization, and decay of Ca^2+ transients. H) Summary of SR Ca^2+ content, which was assessed by caffeine-induced SR Ca^2+ release (n=17, 17, 17, and 12 for Ad-Empty, Ad-JP2, Ad-JP2(1-565), and Ad-JP2(566-end), respectively). **, p<0.01 versus indicated groups; N.S., not significant.
Cleavage at the primary calpain proteolysis site (Arg-565/Thr-566) splits apart the C-terminal SR-binding TM domain and N-terminal plasma membrane-binding MORN domains of JP2. […]

For `O=C(O)CN(CCN(CC(=O)O)CC(=O)O)CC(=O)O` [EDTA], the “JP2 degradation by calpain I” value [1] was “inhibited JP2 degradation”.

`CC(C)CC(NC(=O)OCc1ccccc1)C(=O)NC(CC(C)C)C(=O)NC(Cc1ccc(O)cc1)C(=O)CF` (stereo not drawn) [Z-LLY-FMK] (Cbz-Leu-Leu-Tyr-CH2F; configuration not given here) was tested, and the “JP2 degradation by calpain I” value [1] was “inhibited JP2 degradation” and the “JP2 cleavage products and full-length JP2” value ([1]; lysates of 293T cells overexpressing FLAG/HA-tagged JP2, 3 mM and 500 μM Ca2+) was “substantial reduction in cleavage products and preservation of full-length JP2”.

B1: GST-JP2^331-405: purified peptide containing the ARR; DNA binding domain of JP2NT (protein, UniProt Q9ET78 331-405, looked up, fragment)
chain: EEGKYRHNVLVKGTKRRVLPLKSSKVRQKVEHGVEGAQRAAAIARQKAEIAASRTSHAKAKAEAAEQAALAANQE
modifications: GST tag
With B1 the “interaction with MEF2C Response Element (MRE)” value [2] was “interacts” and the “binding to TATA box” value [3] was “specifically bound to the consensus but not mutant TATA box”.

B2: JP2(566-end): C-terminal JP2 truncation, tagged with HA at the C terminus (protein)
chain: TGPPEPPPLEDEQEPEPEPEPEVRRSDSAPPSPVSATVPEEEPPAPRSPVPAKQATLEPKPIVPKAEPKAKARKTEARGLSKAGAKKKGRKEVAQAKEAEVEVEEVPNTVLICMVILLNIGLAILFVHLLTYPYDVPDYA
B2 was tested, and the “restoration of Ca2+ transients” value [4] was “failed to restore” and the “interaction with RyR2 and Cav1.2” value [5] was “not”.
